Results from IntAct's records for PubMed 18171471.

Target: fak1_chick PTK2 (UniProt Q00944)
Sequence (Q00944 whole entry): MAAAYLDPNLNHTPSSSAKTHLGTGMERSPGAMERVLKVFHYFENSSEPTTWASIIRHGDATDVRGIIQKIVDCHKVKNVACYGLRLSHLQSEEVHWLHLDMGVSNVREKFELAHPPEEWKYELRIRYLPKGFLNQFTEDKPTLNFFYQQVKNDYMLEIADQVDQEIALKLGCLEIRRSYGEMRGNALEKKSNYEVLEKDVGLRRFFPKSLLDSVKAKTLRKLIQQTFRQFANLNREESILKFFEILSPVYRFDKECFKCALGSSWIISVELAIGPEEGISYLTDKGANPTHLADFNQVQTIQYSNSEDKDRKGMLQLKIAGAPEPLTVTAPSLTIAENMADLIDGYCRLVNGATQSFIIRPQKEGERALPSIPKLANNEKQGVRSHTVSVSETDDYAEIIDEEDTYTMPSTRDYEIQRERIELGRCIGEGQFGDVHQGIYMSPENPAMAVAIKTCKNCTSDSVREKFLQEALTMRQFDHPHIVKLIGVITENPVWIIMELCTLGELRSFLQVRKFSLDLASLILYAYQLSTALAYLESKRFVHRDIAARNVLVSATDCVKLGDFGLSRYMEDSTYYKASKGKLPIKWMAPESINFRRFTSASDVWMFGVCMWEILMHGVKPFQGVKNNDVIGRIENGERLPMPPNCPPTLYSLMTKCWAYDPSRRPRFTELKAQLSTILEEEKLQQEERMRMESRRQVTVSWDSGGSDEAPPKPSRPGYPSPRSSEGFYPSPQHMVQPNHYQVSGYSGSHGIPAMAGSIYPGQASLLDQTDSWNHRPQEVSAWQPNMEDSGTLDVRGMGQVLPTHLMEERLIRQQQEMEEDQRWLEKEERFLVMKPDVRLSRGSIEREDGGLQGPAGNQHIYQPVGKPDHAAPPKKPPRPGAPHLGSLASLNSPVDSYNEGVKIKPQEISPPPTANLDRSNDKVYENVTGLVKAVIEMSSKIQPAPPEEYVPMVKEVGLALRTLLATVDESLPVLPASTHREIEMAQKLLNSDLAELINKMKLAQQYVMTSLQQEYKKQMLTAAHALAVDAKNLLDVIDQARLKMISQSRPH

Chain of Paxillin (Gallus gallus (Chicken)), P49024 D146A (P49024 whole entry D146A): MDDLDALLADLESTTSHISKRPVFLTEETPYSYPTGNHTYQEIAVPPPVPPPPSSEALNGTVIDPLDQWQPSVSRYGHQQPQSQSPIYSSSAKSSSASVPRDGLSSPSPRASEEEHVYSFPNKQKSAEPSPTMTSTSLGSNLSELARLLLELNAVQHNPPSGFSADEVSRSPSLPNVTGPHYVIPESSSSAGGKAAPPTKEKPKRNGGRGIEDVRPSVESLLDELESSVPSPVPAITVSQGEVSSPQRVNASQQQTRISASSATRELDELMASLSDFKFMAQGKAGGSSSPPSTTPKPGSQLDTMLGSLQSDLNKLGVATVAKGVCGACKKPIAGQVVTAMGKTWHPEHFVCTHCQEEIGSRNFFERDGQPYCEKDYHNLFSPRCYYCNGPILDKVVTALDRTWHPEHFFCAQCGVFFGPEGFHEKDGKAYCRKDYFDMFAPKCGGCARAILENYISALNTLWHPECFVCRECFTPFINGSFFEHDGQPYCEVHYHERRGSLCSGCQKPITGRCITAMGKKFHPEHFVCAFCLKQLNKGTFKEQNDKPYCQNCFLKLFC
Chain of Paxillin (Gallus gallus (Chicken)), P49024 D146A;D268A (P49024 whole entry D146A/D268A): as the sequence (P49024 whole entry D146A) above, with D268A counted along it

effect of a mutation on the interaction	Substance
disrupting interaction	Paxillin (Gallus gallus (Chicken)), P49024 D146A;D268A
decreasing interaction	Paxillin (Gallus gallus (Chicken)), P49024 D146A
